Test results published in the supplement of paper PMC5998384.

Experiments:
HeLa Kyoto [1] = test: solubility in G1/S (NP-40 vs SDS abundance) (log2 ratio); higher = more soluble; conditions: cell cycle stage: G1/S
HeLa Kyoto [2] = test: melting temperature (median over replicates), in situ; higher = more thermally stable
HeLa Kyoto [3] = test: solubility change mitosis vs G1/S (difference of NP-40 vs SDS log2 ratios) (log2 ratio difference); higher = more soluble in mitosis
HeLa Kyoto [4] = test: thermal stability score vs G1/S (z-score of summed log2 fold changes over temperatures); higher = more thermally stable than in G1/S
[5] = cell cycle stage: early G1 (4.5 h after nocodazole release)
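For melting temperature (median over replicates), in situ in this document: HeLa Kyoto cells synchronized by double thymidine or nocodazole block, proteins quantified by TMT10plex mass spectrometry, three independent biological replicates.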
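For solubility change mitosis vs G1/S (difference of NP-40 vs SDS log2 ratios) in this document: synchronized HeLa Kyoto cells (double thymidine block for G1/S, nocodazole release for mitosis), protein amounts in NP-40 versus SDS lysates quantified by mass spectrometry, three biological replicates.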
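For solubility in G1/S (NP-40 vs SDS abundance) in this document: HeLa Kyoto cells arrested at G1/S by double thymidine block, proteins quantified by TMT10plex mass spectrometry in mild NP-40 versus SDS extracts, three biological replicates.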
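For thermal stability score vs G1/S (z-score of summed log2 fold changes over temperatures) in this document: synchronized HeLa Kyoto cells, proteins quantified by TMT10plex mass spectrometry, three biological replicates, mitosis taken 0.5 h after nocodazole release, G1/S directly after double thymidine block.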

For “MASLSLAPVNIFKAGADEERAETARLTSFIGAIAIGDLVKSTLGPKGMDKILLSSGRDASLMVTNDGATILKNIGVDNPAAKVLVDMSRVQDDEVGDGTTSVTVLAAELLREAESLIAKKIHPQTIIAGWREATKAAREALLSSAVDHGSDEVKFRQDLMNIAGTTLSSKLLTHHKDHFTKLAVEAVLRLKGSGNLEAIHIIKKLGGSLADSYLDEGFLLDKKIGVNQPKRIENAKILIANTGMDTDKIKIFGSRVRVDSTAKVAEIEHAEKEKMKEKVERILKHGINCFINRQLIYNYPEQLFGAAGVMAIEHADFAGVERLALVTGGEIASTFDHPELVKLGSCKLIEEVMIGEDKLIHFSGVALGEACTIVLRGATQQILDEAERSLHDALCVLAQTVKDSRTVYGGGCSEMLMAHAVTQLANRTPGKEAVAMESYAKALRMLPTIIADNAGYDSADLVAQLRAAHSEGNTTAGLDMREGTIGDMAILGITESFQVKRQVLLSAAEAAEVILRVDNIIKAAPRKRVPDHHPC [CCT2]”, the “solubility in G1/S (log2)” value (HeLa Kyoto [1]) was 0.193, the melting temperature (HeLa Kyoto [2]; cell cycle stage: G1/S) was 54.1 °C and the melting temperature (HeLa Kyoto [2]; cell cycle stage: mitosis) was 53.1 °C. The “solubility change mitosis (log2)” value (HeLa Kyoto [3]) was -0.0739, the thermal stability score (HeLa Kyoto [4]; [5]) was -0.324 and the thermal stability score (HeLa Kyoto [4]; cell cycle stage: mitosis) was -1.07.

In the case of “MASPGCLWLLAVALLPWTCASRALQHLDPPAPLPLVIWHGMGDSCCNPLSMGAIKKMVEKKIPGIYVLSLEIGKTLMEDVENSFFLNVNSQVTTVCQALAKDPKLQQGYNAMGFSQGGQFLRAVAQRCPSPPMINLISVGGQHQGVFGLPRCPGESSHICDFIRKTLNAGAYSKVVQERLVQAEYWHDPIKEDVYRNHSIFLADINQERGINESYKKNLMALKKFVMVKFLNDSIVDPVDSEWFGFYRSGQAKETIPLQETSLYTQDRLGLKEMDNAGQLVFLATEGDHLQLSEEWFYAHIIPFLG [PPT1]”, the “solubility in G1/S (log2)” value (HeLa Kyoto [1]) was 0.426, the melting temperature (HeLa Kyoto [2]; cell cycle stage: G1/S) was 55.1 °C and the melting temperature (HeLa Kyoto [2]; cell cycle stage: mitosis) was 55.2 °C. The “solubility change mitosis (log2)” value (HeLa Kyoto [3]) was -0.105, the thermal stability score (HeLa Kyoto [4]; [5]) was 0.0933 and the thermal stability score (HeLa Kyoto [4]; cell cycle stage: mitosis) was -1.67.

With “MASPGIEVELLGKGHSDLGEVAPEIKASERRTAVAIADLEWREMEGDDCEFRYGDGTNEAQDNDFPTVERSRLQEMLSLLGLETYQVQKLSLQDSLQISFDSMKNWAPQVPKDLPWNFLRKLQALNADARNTTMVLDVLPDARPVEKESQMEEEIIYWDPADDLAADIYSFSELPTPDTPVNPLDLLCALLLSSDSFLQQEIALKMALCQFALPLVLPDSENHYHTFLLWAMRGIVRTWWSQPPRGMGSFREDSVVLSRAPAFAFVRMDVSSNSKSQLLNAVLSPGHRQWDCFWHRDLNLGTNAREISDGLVEISWFFPSGREDLDIFPEPVAFLNLRGDIGSHWLQFKLLTEISSAVFILTDNISKKEYKLLYSMKESTTKYYFILSPYRGKRNTNLRFLNKLIPVLKIDHSHVLVKVSSTDSDSFVKRIRAIVGNVLRAPCRRVSVEDMAHAARKLGLKVDEDCEECQKAKDRMERITRKIKDSDAYRRDELRLQGDPWRKAAQVEKEFCQLQWAVDPPEKHRAELRRRLLELRMQQNGHDPSSGVQEFISGISSPSLSEKQYFLRWMEWGLARVAQPRLRQPPETLLTLRPKHGGTTDVGEPLWPEPLGVEHFLREMGQFYEAESCLVEAGRLPAGQRRFAHFPGLASELLLTGLPLELIDGSTLSMPVRWVTGLLKELHVRLERRSRLVVLSTVGVPGTGKSTLLNTMFGLRFATGKSCGPRGAFMQLITVAEGFSQDLGCDHILVIDSGGLIGGALTSAGDRFELEASLATLLMGLSNVTVISLAETKDIPAAILHAFLRLEKTGHMPNYQFVYQNLHDVSVPGPRPRDKRQLLDPPGDLSRAAAQMEKQGDGFRALAGLAFCDPEKQHIWHIPGLWHGAPPMAAVSLAYSEAIFELKRCLLENIRNGLSNQNKNIQQLIELVRRL [URGCP]” the “solubility in G1/S (log2)” value (HeLa Kyoto [1]) was -0.246, the melting temperature (HeLa Kyoto [2]; cell cycle stage: G1/S) was 49.3 °C and the melting temperature (HeLa Kyoto [2]; cell cycle stage: mitosis) was 49.8 °C. For the same sequence, the “solubility change mitosis (log2)” value (HeLa Kyoto [3]) was -0.0805, the thermal stability score (HeLa Kyoto [4]; [5]) was 0.429 and the thermal stability score (HeLa Kyoto [4]; cell cycle stage: mitosis) was 0.88.

“MASPSRRLQTKPVITCFKSVLLIYTFIFWITGVILLAVGIWGKVSLENYFSLLNEKATNVPFVLIATGTVIILLGTFGCFATCRASAWMLKLYAMFLTLVFLVELVAAIVGFVFRHEIKNSFKNNYEKALKQYNSTGDYRSHAVDKIQNTLHCCGVTDYRDWTDTNYYSEKGFPKSCCKLEDCTPQRDADKVNNEGCFIKVMTIIESEMGVVAGISFGVACFQLIGIFLAYCLSRAITNNQYEIV [TSPAN6]” was tested, and the “solubility in G1/S (log2)” value (HeLa Kyoto [1]) was -0.201, the melting temperature (HeLa Kyoto [2]; cell cycle stage: G1/S) was 58.9 °C and the melting temperature (HeLa Kyoto [2]; cell cycle stage: mitosis) was 55.8 °C. For the same sequence, the “solubility change mitosis (log2)” value (HeLa Kyoto [3]) was 2.55e-05, the thermal stability score (HeLa Kyoto [4]; [5]) was 0.413 and the thermal stability score (HeLa Kyoto [4]; cell cycle stage: mitosis) was -2.28.

In the case of “MASPVAAQAGKLLRALALRPRFLAAGSQAVQLTSRRWLNLQEYQSKKLMSDNGVRVQRFFVADTANEALEAAKRLNAKEIVLKAQILAGGRGKGVFNSGLKGGVHLTKDPNVVGQLAKQMIGYNLATKQTPKEGVKVNKVMVAEALDISRETYLAILMDRSCNGPVLVGSPQGGVDIEEVAASNPELIFKEQIDIFEGIKDSQAQRMAENLGFVGPLKSQAADQITKLYNLFLKIDATQVEVNPFGETPEGQVVCFDAKINFDDNAEFRQKDIFAMDDKSENEPIENEAAKYDLKYIGLDGNIACFVNGAGLAMATCDIIFLNGGKPANFLDLGGGVKEAQVYQAFKLLTADPKVEAILVNIFGGIVNCAIIANGITKACRELELKVPLVVRLEGTNVQEAQKILNNSGLPITSAIDLEDAAKKAVASVAKK [SUCLG2]”, the “solubility in G1/S (log2)” value (HeLa Kyoto [1]) was 0.383, the melting temperature (HeLa Kyoto [2]; cell cycle stage: G1/S) was 51.3 °C and the melting temperature (HeLa Kyoto [2]; cell cycle stage: mitosis) was 51.2 °C. The “solubility change mitosis (log2)” value (HeLa Kyoto [3]) was -0.104, the thermal stability score (HeLa Kyoto [4]; [5]) was 0.0772 and the thermal stability score (HeLa Kyoto [4]; cell cycle stage: mitosis) was 0.0477.

“MASQPPPPPKPWETRRIPGAGPGPGPGPTFQSADLGPTLMTRPGQPALTRVPPPILPRPSQQTGSSSVNTFRPAYSSFSSGYGAYGNSFYGGYSPYSYGYNGLGYNRLRVDDLPPSRFVQQAEESSRGAFQSIESIVHAFASVSMMMDATFSAVYNSFRAVLDVANHFSRLKIHFTKVFSAFALVRTIRYLYRRLQRMLGLRRGSENEDLWAESEGTVACLGAEDRAATSAKSWPIFLFFAVILGGPYLIWKLLSTHSDEVTDSINWASGEDDHVVARAEYDFAAVSEEEISFRAGDMLNLALKEQQPKVRGWLLASLDGQTTGLIPANYVKILGKRKGRKTVESSKVSKQQQSFTNPTLTKGATVADSLDEQEAAFESVFVETNKVPVAPDSIGKDGEKQDL [PEX13]” was tested, and the “solubility in G1/S (log2)” value (HeLa Kyoto [1]) was -0.182, the melting temperature (HeLa Kyoto [2]; cell cycle stage: G1/S) was 53.5 °C and the melting temperature (HeLa Kyoto [2]; cell cycle stage: mitosis) was 53.4 °C. For the same sequence, the “solubility change mitosis (log2)” value (HeLa Kyoto [3]) was 0.116, the thermal stability score (HeLa Kyoto [4]; [5]) was -2.51 and the thermal stability score (HeLa Kyoto [4]; cell cycle stage: mitosis) was -2.78.

With “MASSEQAEQPSQPSSTPGSENVLPREPLIATAVKFLQNSRVRQSPLATRRAFLKKKGLTDEEIDMAFQQSGTAADEPSSLGPATQVVPVQPPHLISQPYSPAGSRWRDYGALAIIMAGIAFGFHQLYKKYLLPLILGGREDRKQLERMEAGLSELSGSVAQTVTQLQTTLASVQELLIQQQQKIQELAHELAAAKATTSTNWILESQNINELKSEINSLKGLLLNRRQFPPSPSAPKIPSWQIPVKSPSPSSPAAVNHHSSSDISPVSNESTSSSPGKEGHSPEGSTVTYHLLGPQEEGEGVVDVKGQVRMEVQGEEEKREDKEDEEDEEDDDVSHVDEEDCLGVQREDRRGGDGQINEQVEKLRRPEGASNESERD [PEX14]” the “solubility in G1/S (log2)” value (HeLa Kyoto [1]) was 0.332, the melting temperature (HeLa Kyoto [2]; cell cycle stage: G1/S) was 53.2 °C and the melting temperature (HeLa Kyoto [2]; cell cycle stage: mitosis) was 53.6 °C. For the same sequence, the “solubility change mitosis (log2)” value (HeLa Kyoto [3]) was 0.164, the thermal stability score (HeLa Kyoto [4]; [5]) was 0.978 and the thermal stability score (HeLa Kyoto [4]; cell cycle stage: mitosis) was 1.36.

With “MASTTSTKKMMEEATCSICLSLMTNPVSINCGHSYCHLCITDFFKNPSQKQLRQETFCCPQCRAPFHMDSLRPNKQLGSLIEALKETDQEMSCEEHGEQFHLFCEDEGQLICWRCERAPQHKGHTTALVEDVCQGYKEKLQKAVTKLKQLEDRCTEQKLSTAMRITKWKEKVQIQRQKIRSDFKNLQCFLHEEEKSYLWRLEKEEQQTLSRLRDYEAGLGLKSNELKSHILELEEKCQGSAQKLLQNVNDTLSRSWAVKLETSEAVSLELHTMCNVSKLYFDVKKMLRSHQVSVTLDPDTAHHELILSEDRRQVTRGYTQENQDTSSRRFTAFPCVLGCEGFTSGRRYFEVDVGEGTGWDLGVCMENVQRGTGMKQEPQSGFWTLRLCKKKGYVALTSPPTSLHLHEQPLLVGIFLDYEAGVVSFYNGNTGCHIFTFPKASFSDTLRPYFQVYQYSPLFLPPPGD [TRIM38]” the “solubility in G1/S (log2)” value (HeLa Kyoto [1]) was -0.661, the melting temperature (HeLa Kyoto [2]; cell cycle stage: mitosis) was 48.8 °C and the “solubility change mitosis (log2)” value (HeLa Kyoto [3]) was 0.155. The thermal stability score (HeLa Kyoto [4]; [5]) was -0.0637 and the thermal stability score (HeLa Kyoto [4]; cell cycle stage: mitosis) was -0.487.

For “MASVAAARAVPVGSGLRGLQRTLPLVVILGATGTGKSTLALQLGQRLGGEIVSADSMQVYEGLDIITNKVSAQEQRICRHHMISFVDPLVTNYTVVDFRNRATALIEDIFARDKIPIVVGGTNYYIESLLWKVLVNTKPQEMGTEKVIDRKVELEKEDGLVLHKRLSQVDPEMAAKLHPHDKRKVARSLQVFEETGISHSEFLHRQHTEEGGGPLGGPLKFSNPCILWLHADQAVLDERLDKRVDDMLAAGLLEELRDFHRRYNQKNVSENSQDYQHGIFQSIGFKEFHEYLITEGKCTLETSNQLLKKGIEALKQVTKRYARKQNRWVKNRFLSRPGPIVPPVYGLEVSDVSKWEESVLEPALEIVQSFIQGHKPTATPIKMPYNEAENKRSYHLCDLCDRIIIGDREWAAHIKSKSHLNQLKKRRRLDSDAVNTIESQSVSPDHNKEPKEKGSPGQNDQELKCSV [TRIT1]”, the “solubility in G1/S (log2)” value (HeLa Kyoto [1]) was 0.0861, the melting temperature (HeLa Kyoto [2]; cell cycle stage: G1/S) was 53.3 °C and the melting temperature (HeLa Kyoto [2]; cell cycle stage: mitosis) was 49.1 °C. The “solubility change mitosis (log2)” value (HeLa Kyoto [3]) was -0.137, the thermal stability score (HeLa Kyoto [4]; [5]) was -0.00673 and the thermal stability score (HeLa Kyoto [4]; cell cycle stage: mitosis) was 0.208.
